Measurements from patent US20220127365A1 (DREN BIO, published 2022).

T1: human CD94 (human, UniProt Q13241 1-179)
T1 construct: whole, on cells; Endogenous CD94 on primary cells (healthy-donor PBMC NK cells, CLPD-NK and T-LGLL patient cells), where it pairs with NKG2A or NKG2C; also called KLRD1; Natural killer cells antigen CD94
T1 sequence (looked up): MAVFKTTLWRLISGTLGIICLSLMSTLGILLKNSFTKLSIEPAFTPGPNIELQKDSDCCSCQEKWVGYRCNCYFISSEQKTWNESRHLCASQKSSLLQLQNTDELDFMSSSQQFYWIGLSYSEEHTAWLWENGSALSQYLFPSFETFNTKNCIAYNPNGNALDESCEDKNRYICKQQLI


Key:
human CD94 [1] = biological target: T1, human CD94; experiment: HLA-E tetramer blocking on healthy-donor PBMCs, flow cytometry; competitor HLA-E tetramer
Protocol: (§1) Healthy donor PBMCs were seeded in 96-well plates at a density of 100,000 cells per well, incubated with human Fc block (Biolegend) and cell viability dye (Thermo Fisher) for 30 minutes on ice and protected from light. The cells were washed once with FACS buffer (PBS with 2% IgG low FBS). anti-CD94 antibodies at EC80 concentrations were incubated with cells for 30 minutes on ice and protected from light. After incubation with the anti-CD94 antibodies, the cells were washed and incubated with HLA-E tetramer PE (Creative Biolabs), anti-CD3 pacific blue-labelled, and anti-CD56 FITC-labelled antibodies (Biolegend) for 30 minutes on ice and protected from light. The cells then received a final wash in FACS buffer before quantification on the Cytoflex (Beckman Coulter). All data acquisition and fluorescence compensation were performed using CytoFlex (Beckman Coulter, Atlanta, Ga.). Data analysis was performed using FlowJo software. NK cells were identified through gating on lymphocytes on the forward and side scatter, followed by doublet and dead cell exclusion, and gated on the CD3−CD56+ population. HLA-E expression was then quantified on the CD3−CD56+NK cell population. Percent blocking was calculated as 100−((percent HLA-E positive for anti-CD94 antibody)/(percent HLA-E positive for isotype)*100).
Healthy donor PBMCs were incubated with anti-CD94 antibodies. PE labeled HLA-E tetramer was then incubated with cells and antibody mixture and detected by flow cytometry.
Percent blocking was calculated as 100−((percent HLA-E positive for anti-CD94 antibody)/(percent HLA-E positive for isotype)*100). If an antibody blocked more than 20% of HLA-E binding, it was considered a ligand-blocking antibody.

human CD94 [2] = biological target: T1, human CD94; experiment: flow cytometry titration (100 nM to 0.046 nM) on healthy-donor PBMCs, CD3-CD56bright NK cells; column 'Affinity on human NK cells (nM)'
cynomolgus CD94 = biological target: T2, cynomolgus CD94 (cynomolgus monkey); experiment: flow cytometry on HEK293 cells overexpressing cynomolgus CD94; unconjugated antibody in a dilution series, Alexa Fluor 647 anti-human secondary antibody
T2 construct: whole, on cells; The construct expressed in HEK293 cells is not described further; also called cyno CD94; cynomolgus monkey CD94
Protocol: For human NK cell binding, PBMCs were freshly isolated from healthy donors and incubated with unconjugated antibodies in a dilution series from 100 nM to 0.046 nM. Secondary anti-human antibody labeled with Alexa Fluor 647 was used to detect binding on CD3−CD56bright NK cells. For cynomolgus CD94 binding, HEK293 cells overexpressing cynomolgus CD94 were incubated with unconjugated antibodies in a dilution series from 100 nM to 0.046 nM. Secondary anti-human antibody labeled with Alexa Fluor 647 was used to detect binding on the cells.

human CD94 [3] = biological target: T1, human CD94; experiment: table column 'HLA-E blocking'; flow cytometry on NK cells of healthy donor PBMCs, antibody at saturating concentration, blocked ligand PE labeled HLA-E tetramer; percent blocking = 100-((percent HLA-E positive with antibody)/(percent HLA-E positive with isotype)*100)
Protocol: FIGS. 4A & 4B show the results of HLA-E tetramer blocking assays performed with anti-CD94 and commercially available anti-CD94 antibodies using flow cytometry. Healthy donor PBMCs were incubated with anti-CD94 antibodies. PE labeled HLA-E tetramer was then incubated with the cell and antibody mixture, and detected using flow cytometry. For HP-3B1, 131412, 12K45, DX22, 1M4 and 1E4, 2.5 μl of HLA-E tetramer reagent was used, while 5 μl was used for 18H3 and HP-3D9. Saturating concentrations of each antibody was used in this assay. The percent blocking was calculated as 100−((percent HLA-E positive for anti-CD94 antibody)/(percent HLA-E positive for isotype)*100).
as §1

human CD94 [4] = biological target: T1, human CD94; experiment: cell-based or functional assay

| Binder | percent HLA-E blocking (human CD94 [1]) | EC50 (human CD94 [2]) | other results |
| --- | --- | --- | --- |
| anti-CD94 antibody 1E4 (antibody, V domains shown, Hybridoma antibody from ATX-Gx Alloy transgenic mice; also called fucosylated 1E4) VH: QVTLRESGPALVKPTQTLTLTCTFSGFSLSTSDLCVSWIRQPPGKALEWLALIDWNDDKYYSTSLQTRLTISKDTSKNQVVLTMTNMDPVDTATYYCARTIAAAGPYDAFDIWGQGTMVTVSS VL: not shown |  |  | HLA-E blocking (human CD94 [3]): 0% |
| anti-CD94 antibody 1M4 (antibody, V domains shown) VH: QLVESGGGLVQPGGSLRLACAASGFTFSNYAMNWVRQAPGKGLEWVSVISGSGDTTYCADSVKGRFTISRDNSKNTLHLQLNSLRAEDTAVYYCAKNCYGSGSYYNHFDYWGQGTLVTVSS VL: not shown |  |  | HLA-E blocking (human CD94 [3]): 0% |
| anti-CD94 antibody ATX-124 (antibody, human IgG1, V domains shown) VH: QVQLVQSGAEVKKPGASVKVSCKASGYTFTSYGISWVRQAPGQGLEWMGWISAYNGNTNYAQKLQGRVTMTTDTSTSTAYMEVRSLRSDDTAVYYCARDRGRFGELFFDHWGQGTLVTVSS VL: DIVMTQSPSSVSASVGDRVTITCRASQGISNYLAWYQQKPGKAPKLLIYAASSLQSGVPSRFSGSGSGTDFTLTISSLQPEDFATYYCLQHNSYPFTFGPGTKVDIK | 18% | 10 nM |  |
| anti-CD94 antibody ATX-122 (antibody, V domains shown, Detected with an anti-human secondary antibody) VH: QVQLVQSGAEVKKPGASLKVSCKASGYTFTSYGVSWVRQAPGQGLEWVGWISPYNGNTNYAHNLQGRVAMTTDTSTSTAYMELRSLRSDDMAVYYCARDRGRFGELFFDYWGQGTLVTVSS VL: DIVMTQSPSSVSASVGDRVTITCRASQGISNYLAWYQQKPGKAPKLLIYAASSLQSGVPSRFSGSGSGTDFTLTISSLQPEDFATYYCLQHNSYPFTFGPGTKVDIK | 0% | 27 nM |  |
| 18H3-KIF (antibody, V domains shown) VH: EVQLVQSGAEVKKPGESLKISCKGSGYRFTSYWIGWVRQMPGKGLEWMGIIYPGDSDTRYSPSFQGQVIISADKSITTAFLQWSSLKASDTAMYYCARPFDYGGSPGYFDYWGQGTLVTVSS VL: DIQMTQSPSTLSASVGDRVTITCRASQSIRSWLAWYQQKPGKAPKLLIYKASSLESGVPSRFSGSGSGTEFTLTISSLQPDDFATYYCQQYNTFWTFGQGTKVEIK |  |  | IC50 of CLPD-NK leukemic cell depletion, ADCC assay with CLPD-NK patient PBMCs (human CD94 [4]): 0.059 µg/mL; IC50 of NK cell depletion, ADCC assay with healthy donor PBMCs (human CD94 [4]): 0.02 µg/mL |

Continued, in another order:

| percent HLA-E blocking (human CD94 [1]) | EC50 (human CD94 [2]) | Binder | other results |
| --- | --- | --- | --- |
| 11% | 4.63 nM | anti-CD94 antibody ATX-125 (antibody, human IgG1, V domains shown) VH: QVQLQQSGPGLVKPSETLSLTCTVSGGSISSIIYYWGWIRQPPGKGLEWIGSIYYSGSTYYNPSLKSRVTISVDTSKNQFSLNLSSVTAADTAVYYCARLPLTGEFAFDIWGQGTMVTVSS VL: EIVLTQSPATLSLSPGERATLSCRASQSVSTYLAWFQQKPGQAPRLLIYGASSRATGIPDRFSGSGSGTDFTLTISRLEPEDFAVYYCQQYGSSPITFGQGTRLEIK | EC50 (read off the curve) (cynomolgus CD94): ~2 nM |
| 77% | 0.31 nM | anti-CD94 antibody ATX-127 (antibody, human IgG1, V domains shown) VH: QVQLQQSGPGLVKPSGTLSLTCAVSGGSISSRYWWTWVRQPPGKGLEWIGEIYHSGTTNYNPSLESRVTISVDKSKNQFSLKVSSVTAADTAVYYCARSPNWGYYYYYMDVWGKGTTVTVSS VL: EIVMTQSPATLSVSPGERATLSCRASQSVSSSYLAWYQQKPGQAPRLLIYGASSRATGIPDRFSGSGSGTDFTLTISRLESEDFAVYYCQQYGRSLTFGGGTKVEIK |  |
| 0% | 2.52 nM | anti-CD94 antibody ATX-126 (antibody, human IgG1, V domains shown) VH: QVQLQESGGGLVQPGGSLKLSCAASGFTFSSYSMNWVRQAPGKGLEWVSSISTSSNFIYYADSVKGRFTISRDNSKNTLYLQMNSLRAEDTAVYYCVRDMGPFYSFYYMDVWGNGTTVTVSS VL: DIQVTQSPATLSLSPGERATLSCRASQSVSSSYLAWYQQKPGQAPRLLIYGASNRATGIPARFSGSGSGTDFTLTISSLQPEDFATYYCLQHNSYPPTFGGGTKVDIK | EC50 (read off the curve) (cynomolgus CD94): ~2 nM |
| 10% | 0.32 nM | anti-CD94 antibody ATX-128 (antibody, V domains shown) VH: QVQLQESGGGLVQPGGSLKLSCAASGFTFSGSTIQWVRQASGKGLEWVGRIRSKANSYATASAASVKGRFTISRDDSKNMAYLQMNSLKTEDTAVYYCTREGLGYYNVGYYYFYMDVWGKGTTVTVSS VL: not shown |  |
| 39% | 1.12 nM | anti-CD94 antibody ATX-123 (antibody, human IgG1, V domains shown) VH: QVQLVQSGAEVKKPGASVKVSCKASGYTFTSYGISWVRQAPGQGLEWMGWISAYNGNTNYAQKFQGRVTMTTDTSTNTAYMELRSLRSDDTAVYYCARDRGRFGELLSDYWGQGTLVTVSS VL: DIVMTQSPSSVSASVGDRVTITCRASQGISNYLAWYQQKPGKAPKLLIYAASSLQSGVPSRFSGSGSGTDFTLTISSLQPEDFATYYCLQHNSYPFTFGPGTKVDIK |  |
| 96% | 2.8 nM | anti-CD94 antibody ATX-129 (antibody, human IgG1, V domains shown) VH: EVQLVQSGGGLVQPGGSLRLSCAASGFTFSSYWMSWVRQAPGKGLEWVANIKQDGSAKYYVDSVKGRFTISRDNAKNSLYLQMNSLRAEDTAVYYCARGYYFDYWGQGTLVTVSS VL: EIVLTQSPSTLSASVGDRVTITCRVSQGISSYLNWYRQKPGKVPKLLIYAASSLQSGVPSRFSGSGSGTDFTLTISSLQPEDFATYYCQQSYSTPITFGQGTRLEIK |  |
